Like-named read-outs stand apart in the source and are kept apart here.
Legend:
[1] = target: human cancer-specific MUC1 peptide (PTL 1) (human); assay: ELISA, immobilised MUC1 peptide (Example 6-1)
[2] = target: human cancer-specific MUC1 peptide (PTL 1) (human); assay: ELISA, immobilised MUC1 peptide (Example 6-2)
[3] = mouse, in vivo
Procedure: (§1) A Gd-labeled conjugate of the conjugate containing a peptide linker produced in one of the above Examples was administered from the tail vein of mice (BALB/c or BALB/c nu/nu) so that the protein mass was 0.02 mg (100 μL) per animal. After about 24 hours, the mice were sacrificed and the kidneys were removed, and the amount of Gd in the kidneys was measured using ICP-MS. The present test was carried out in 3 cases in each group, the mean value of the 3 cases was calculated, and the amount of Gd contained per kidney after administration was shown as a percentage (% of dose/tissue) of the total amount of Gd administered.
(§2) Based on the percentage of the control conjugate (% of dose/tissue), the proportion of decrease in the amount of Gd contained in the kidneys of each of the conjugates having a peptide linker was determined and shown in Table 28.

[4] = set-up: species or system mice (BALB/c nu/nu); details: mouse, in vivo
Procedure: A Gd-labeled conjugate of the conjugate containing a peptide linker produced in one of the above Examples was administered from the tail vein of tumor-bearing mice so that the protein mass was 0.02 mg (100 μL) per animal. As the tumor-bearing mice used in the present Example, mice (BALB/c nu/nu) that were in a tumor-bearing state brought about by transplanting human colorectal cancer cell line LS174T cells (ATCC(registered trademark); CL-188) at 2.0 to 5.0×10^6 cells/mouse subcutaneously on the back before administration of the sample were used. 24 hours after administration of the sample, the mice were sacrificed, the kidneys and the tumor were removed, and the amounts of Gd in the kidneys and in the tumor were measured using ICP-MS. The present test was carried out in 3 cases in each group, and the mean value of the 3 cases was calculated. The amount of Gd contained per kidney after administration was shown as a percentage of the amount of Gd administered (% of dose/tissue), and the amount of Gd contained per g of tumor tissue was shown as a percentage of the total amount of Gd administered (% of dose/g).

[5] = Example 4-1: kidney accumulation evaluation test of Gd-labeled conjugates (normal mice); details: about 24 hours, relative to control conjugate Ex-No 47
Procedure: as §1, §2

[6] = set-up: species or system mice (BALB/c or BALB/c nu/nu); details: mouse, in vivo
Procedure: as §1

[7] = set-up: species or system mice (BALB/c or BALB/c nu/nu); details: mouse, in vivo; remark: listed apart in the source
Procedure: as §1
Based on the amount of Gd contained in the kidneys of the control conjugate, the proportion of decrease in the amount of Gd contained in the kidneys of each of the conjugates having a peptide linker was determined.

Sequence of human cancer-specific MUC1 peptide (PTL 1) (human) (main, as listed by the source): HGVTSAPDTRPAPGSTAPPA

B1: ([Gd/DOTA-NH-CH2-(1,4-Ph)-NH-C(═O)-Met-Ile-NH-(CH2)2-(A-4 and/or A-5)]p-Fab^5) (Fab, V domains shown)
VH: QVQLVQSGAEVKKPGASVKVSCKASGYTFTNYGLSWVRQAPGQGLEWMGENHPGSGIIYHNEKFRGRVTLTADRSTSTAYMELSSLRSEDTAVYYCARSSGTRGFDYWGQGTLVTVSS
VL: DVVMTQTPLSLSVTPGQPASISCRSSQSIVHSNGNTYLEWYLQKPGQSPQLLIYRVSNRFSGVPDRFSGSGSGTDFTLKISRVEAEDVGVYYCFQGSHGPWTFGQGTKLEIKR
modifications: labeling portion on p amino groups of the Fab; chain and sites not stated
In the case of B1, the EC50 [1] is reported as 0.08 nM.

B2: ([Gd/DOTA-NH-CH2-(1,4-Ph)-NH-C(═O)-Met-Ile-NH-(CH2)2-(A-3)]p-Fab^5) (Fab, V domains shown)
VH: B1 VH
VL: B1 VL
modifications: labeling portion on p amino groups of the Fab; chain and sites not stated
B2 gave an EC50 [1] of 0.15 nM.

B3: Ex-No 108, conjugate with Fab^5 that does not contain a peptide linker (structure only as drawing CHEM-US-00162) (Fab, V domains shown)
VH: B1 VH
VL: B1 VL
modifications: labeling portion on p amino groups of the Fab; chain and sites not stated
B3 showed an EC50 [2] of 0.07 nM and an EC50 [1] of 0.07 nM.

B4: ([Gd/DOTA-NH-CH2-(1,4-Ph)-NH-C(═O)-Met-Ile-NH-(CH2)2-Z1(#N)]p-Fab^5) (Fab, V domains shown)
VH: B1 VH
VL: B1 VL
modifications: labeling portion on p amino groups of the Fab; chain and sites not stated
B4 showed an EC50 [2] of 0.08 nM.

B5: ([Gd/DOTA-NH-CH2-(1,4-Ph)-NH-C(═O)-Met-Ile-NH-(CH2)2-Z1(#S)]p-Fab^5) (Fab, V domains shown)
VH: B1 VH
VL: B1 VL
modifications: labeling portion on p amino groups of the Fab; chain and sites not stated
Work on B5 yielded an EC50 [2] of 0.09 nM.

B6: ([Gd/DOTA-[2,5-(1,2,3,4-tetrahydroisoquinoline)]-C(═O)-Met-Gly-Lys*-C(═S)-NH-(1,4-Ph)-NH-C(═S)]p-Fab^5) (Fab, V domains shown)
VH: B1 VH
VL: B1 VL
modifications: labeling portion on p amino groups of the Fab; chain and sites not stated
Molecule B6 has an EC50 [2] of 0.19 nM.

B7: [Gd/DOTA-NH—(CH2CH2O)3—CH2—C(═O)—NH—CH2-(1,3-Ph)-C(═O)-Met-Gly-Lys*-Z2(#N)]p-Fab^2 (conjugate)
heavy: EVQLVESGGGLVQPGGSLRLSCAASGFNIRDTYMHWVRQAPGKGLEWVARIDPANGNSRYVPKFQGRFTISADTSRNTAYLQMNSLRAEDTAVYYCAPFGYYVSDYAMAYWGQGTLVTVSSASTKGPSVFPLAPSSKSTSGGTAALGCLVKDYFPEPVTVSWNSGALTSGVHTFPAVLQSSGLYSLSSVVTVPSSSLGTQTYICNVNHKPSNTKVDKKVEPKSCD
light: DIQLTQSPSSLSASVGDRVTITCRAGESVDIFGVGFLHWYQQKPGKAPKLLIYRASNLESGIPSRFSGSGSRTDFTLTISSLQPEDFATYYCQQTNEDPYTFGQGTKVEIKRTVAAPSVFIFPPSDEQLKSGTASVVCLLNNFYPREAKVQWKVDNALQSGNSQESVTEQDSKDSTYSLSSTLTLSKADYEKHKVYACEVTHQGLSSPVTKSFNRGEC
For B7, the “Proportion of decrease (%) in the amount of Gd contained in the kidneys” value (“Proportion of decrease (%) … in the kidneys” below) [3] was 78.0%, the “Renal residual amount (cancer-bearing mice), % of dose/tissue” value [4] was 8.40 % of dose/tissue and the “Renal residual amount (cancer-bearing mice), Proportion of decrease (%)” value [4] was 67.48%.

B8: [Gd/DOTA-NH—(CH2CH2O)3—CH2—C(═O)—NH—CH2-(1,3-Ph)-C(═O)-Met-Gly-Lys*-Z2(#S)]p-Fab^2 (conjugate)
heavy: B7 heavy
light: B7 light
In the case of B8, the “Proportion of decrease (%) … in the kidneys” value [3] is reported as 77.4%, the “Renal residual amount (cancer-bearing mice), % of dose/tissue” value [4] is reported as 9.40 % of dose/tissue and the “Renal residual amount (cancer-bearing mice), Proportion of decrease (%)” value [4] is reported as 63.61%.

B9: [Gd/4arm-DOTA-CH2-(1,4-Ph)-NH—C(═S)—NH—CH2-(1,3-Ph)-C(═O)-Met-Gly-Lys*-Z2(#S)]p-Fab^2 (conjugate)
heavy: B7 heavy
light: B7 light
For B9, the “Proportion of decrease (%) … in the kidneys” value [5] was 72.9%.

B10: [Gd/DOTA-NH—CH2-(1,3-Ph)-C(═O)-Asp-Gly-Lys*-Z2(#N)]p-Fab^2 (conjugate)
heavy: B7 heavy
light: B7 light
For B10, the “Proportion of decrease (%) … in the kidneys” value [3] was 52.2%, the “Renal residual amount (normal mice), % of dose/tissue” value [6] was 21.67 % of dose/tissue and the “Renal residual amount (normal mice), Proportion of decrease (%)” value [6] was 26.12%.

B11: [Gd/4arm-DOTA-CH2-(1,4-Ph)-NH—C(═S)-Gly-Phe-Lys*-Z2(#N)]p-Fab^2 (conjugate)
heavy: B7 heavy
light: B7 light
For B11, the “Proportion of decrease (%) … in the kidneys” value [5] was 68.0%.

B12: [Gd/DOTA-NH—CH2-(1,3-Ph)-C(═O)-Met-Gly-Lys*-Z2(#N)]p-Fab^2 (conjugate)
heavy: B7 heavy
light: B7 light
With B12 the “Proportion of decrease (%) … in the kidneys” value [3] was 50.3%.

B13: [Gd/DOTA-NH—(CH2CH2O)3—CH2—C(═O)—NH—CH2-(1,3-Ph)-C(═O)-Gly-Lys*—Z2(#N)]p-Fab^2 (conjugate)
heavy: B7 heavy
light: B7 light
For B13, the “Proportion of decrease (%) … in the kidneys” value [3] was 44.8%.

B14: [Gd/DOTA-NH—CH2-(1,3-Ph)-C(═O)-Met-Gly-Lys*-Z2(#S)]p-Fab^2 (conjugate)
heavy: B7 heavy
light: B7 light
With B14 the “Proportion of decrease (%) … in the kidneys” value [3] was 58.3%, the “Renal residual amount (cancer-bearing mice), % of dose/tissue” value [4] was 12.33 % of dose/tissue and the “Renal residual amount (cancer-bearing mice), Proportion of decrease (%)” value [4] was 52.26%.

B15: Ex-No 10: (Y—S1—X)p-Fab^2: Y Gd/DOTA, S1 bond, X -Met-Ile-Lys*-Z2(#N)— (conjugate)
heavy: B7 heavy
light: B7 light
For B15, the “Renal residual amount (normal mice), % of dose/tissue” value [6] was 20.10 % of dose/tissue and the “Renal residual amount (normal mice), Proportion of decrease (%)” value [6] was 31.46%.

B16: [Gd/DOTA-NH—CH2-(1,4-Ph)-NH—C(═O)-Met-Ile-NH—(CH2)2—Z(#N)]p-Fab^2 (conjugate)
heavy: B7 heavy
light: B7 light
With B16 the “Renal residual amount (cancer-bearing mice), % of dose/tissue” value [4] was 5.77 % of dose/tissue, the “Renal residual amount (cancer-bearing mice), Proportion of decrease (%)” value [4] was 77.68% and the “Renal residual amount (normal mice), % of dose/tissue” value [6] was 2.60 % of dose/tissue. The “Renal residual amount (normal mice), Proportion of decrease (%)” value [6] was 91.13%.

B17: [Gd/DOTA-NH—CH2-(1,4-Ph)-NH—C(═O)-Met-Ile-NH—(CH2)2-(A-4 and/or A-5)]p-Fab^5 (conjugate)
heavy: QVQLVQSGAEVKKPGASVKVSCKASGYTFTNYGLSWVRQAPGQGLEWMGENHPGSGIIYHNEKFRGRVTLTADRSTSTAYMELSSLRSEDTAVYYCARSSGTRGFDYWGQGTLVTVSSASTKGPSVFPLAPSSKSTSGGTAALGCLVKDYFPEPVTVSWNSGALTSGVHTFPAVLQSSGLYSLSSVVTVPSSSLGTQTYICNVNHKPSNTKVDKKVEPKSCD
light: DVVMTQTPLSLSVTPGQPASISCRSSQSIVHSNGNTYLEWYLQKPGQSPQLLIYRVSNRFSGVPDRFSGSGSGTDFTLKISRVEAEDVGVYYCFQGSHGPWTFGQGTKLEIKRTVAAPSVFIFPPSDEQLKSGTASVVCLLNNFYPREAKVQWKVDNALQSGNSQESVTEQDSKDSTYSLSSTLTLSKADYEKHKVYACEVTHQGLSSPVTKSFNRGEC
With B17 the “Renal residual amount (normal mice), % of dose/tissue” value [7] was 2.30 % of dose/tissue.

B18: [Gd/DOTA-NH—CH2-(1,4-Ph)-NH—C(═O)-Met-Ile-NH—(CH2)2-(A-3)]p-Fab^5 (conjugate)
heavy: B17 heavy
light: B17 light
For B18, the “Renal residual amount (normal mice), % of dose/tissue” value [7] was 2.80 % of dose/tissue.

— patent US20220105194A1, “CONJUGATE COMPRISING LIGAND, SPACER, PEPTIDE LINKER, AND BIOMOLECULE” (ASTELLAS PHARMA INC., priority 2019, published 2022)
